Source: patent publication US20260022175A1 (Chugai, published 2026)

Key:
[1] = target: T1, human FcγRIIb extracellular domain (human, UniProt P31994 43-217); test: SPR Biacore 8K+, antibody captured, FcγR as analyte, steady state affinity model
T1 construct: extracellular domain; also called hFcγR IIb
T1 sequence (looked up): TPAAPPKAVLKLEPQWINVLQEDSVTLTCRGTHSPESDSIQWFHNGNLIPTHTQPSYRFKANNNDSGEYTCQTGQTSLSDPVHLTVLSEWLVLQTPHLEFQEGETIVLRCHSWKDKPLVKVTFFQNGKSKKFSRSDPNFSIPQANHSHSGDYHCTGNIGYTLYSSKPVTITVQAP

[2] = target: T2, hFcγRIIaH on hFcγRIIaH-expressing Jurkat cells (human, UniProt P12318 34-317); test: cell-based or functional assay
T2 sequence (looked up): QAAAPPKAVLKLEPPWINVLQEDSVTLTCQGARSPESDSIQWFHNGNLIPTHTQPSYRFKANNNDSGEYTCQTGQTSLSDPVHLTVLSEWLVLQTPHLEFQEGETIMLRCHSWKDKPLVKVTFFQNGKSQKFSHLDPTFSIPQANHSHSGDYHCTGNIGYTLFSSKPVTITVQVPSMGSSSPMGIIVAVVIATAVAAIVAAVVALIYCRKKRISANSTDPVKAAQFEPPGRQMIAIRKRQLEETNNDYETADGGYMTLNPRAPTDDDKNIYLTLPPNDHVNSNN

[3] = target: hFcγRIIIaV on hFcγRIIIaV-expressing Jurkat cells (human, UniProt P08637 17-254); test: cell-based or functional assay
Sequence of hFcγRIIIaV on hFcγRIIIaV-expressing Jurkat cells (P08637 17-254, form in doubt): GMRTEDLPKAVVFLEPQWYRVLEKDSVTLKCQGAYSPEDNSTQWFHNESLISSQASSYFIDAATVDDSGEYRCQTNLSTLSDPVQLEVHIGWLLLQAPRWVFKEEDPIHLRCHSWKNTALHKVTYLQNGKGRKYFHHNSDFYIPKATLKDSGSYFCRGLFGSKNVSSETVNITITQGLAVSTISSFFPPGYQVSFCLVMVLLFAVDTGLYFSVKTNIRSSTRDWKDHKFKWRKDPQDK

[4] = target: T3, human FcγRIa extracellular domain (human, UniProt P12314 16-292); test: SPR Biacore 8K+, antibody captured, FcγR as analyte, 1:1 Langmuir model;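 further: antibodies captured on a streptavidin chip through a biotinylated anti-human Fab kappa reagent, with FcγR extracellular domains injected in pH 7.4 phosphate buffer at 25 °C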
T3 construct: extracellular domain; also called hFcγR Ia; hFcγRIa
T3 sequence (P12314 16-292): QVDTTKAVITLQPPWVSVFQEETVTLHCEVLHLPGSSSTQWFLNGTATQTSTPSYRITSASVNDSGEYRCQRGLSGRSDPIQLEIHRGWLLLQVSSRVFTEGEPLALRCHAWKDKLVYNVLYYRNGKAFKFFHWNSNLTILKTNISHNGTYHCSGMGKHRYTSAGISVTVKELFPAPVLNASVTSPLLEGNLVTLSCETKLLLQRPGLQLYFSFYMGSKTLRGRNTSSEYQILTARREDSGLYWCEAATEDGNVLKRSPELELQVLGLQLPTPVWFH
Method: (§1) The interaction between the produced antibodies and human FcγRs was analyzed using Biacore 8K+ by the method below. For the running buffer, 50 mM Na-Phosphate, 150 mM NaCl, and 0.05% Tween20 (pH 7.4) was used, and measurement was performed at 25° C. The sensor chip used was a Series S SA chip (GE Healthcare) onto which CaptureSelect Human Fab-kappa Kinetics Biotin Conjugate (Thermo Fisher Scientific) was immobilized. An antibody of interest was captured onto this chip, and each FcγR diluted with the running buffer was allowed to interact with it. The chip was regenerated using 10 mM Glycine-HCl (pH 1.5), and repeatedly used to capture antibodies and perform measurement. The dissociation constants KD (mol/L) of each antibody for FcγRs were calculated using Biacore Insight Evaluation Software, with a steady state affinity model for the dissociation constant for FcγRIIb and a 1:1 Langmuir binding model for the dissociation constants for the other FcγRs (Table 48).

[5] = target: T4, human FcγRIIIa V extracellular domain (human, UniProt P08637 17-208); test: as above
T4 construct: extracellular domain; also called hFcγR IIIa V
T4 sequence (P08637 17-208 F176V limits assumed): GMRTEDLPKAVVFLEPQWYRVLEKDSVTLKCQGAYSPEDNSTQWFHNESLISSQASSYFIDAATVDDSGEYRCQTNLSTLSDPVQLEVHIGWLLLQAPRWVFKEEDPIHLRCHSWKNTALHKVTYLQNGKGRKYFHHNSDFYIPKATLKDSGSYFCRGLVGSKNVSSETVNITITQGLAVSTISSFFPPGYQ
Method: as §1

[6] = target: T5, human FcγRIIa R extracellular domain (human, UniProt P12318 34-217); test: as above
T5 construct: extracellular domain; also called hFcγR IIa R
T5 sequence (looked up): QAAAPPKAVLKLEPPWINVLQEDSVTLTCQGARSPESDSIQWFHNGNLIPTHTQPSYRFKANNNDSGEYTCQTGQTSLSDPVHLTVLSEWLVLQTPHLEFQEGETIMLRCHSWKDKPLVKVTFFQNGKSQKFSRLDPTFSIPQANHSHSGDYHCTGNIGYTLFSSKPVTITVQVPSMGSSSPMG
Method: as §1

[7] = target: T6, human FcγRIIIa F extracellular domain (human, UniProt P08637 17-208); test: as above
T6 construct: extracellular domain; also called hFcγR IIIa F
T6 sequence (P08637 17-208): as the sequence (P08637 17-208 F176V limits assumed) above, with V160F counted along it
Method: as §1

[8] = target: T7, human FcγRIIa H extracellular domain (human, UniProt P12318 34-217); test: as above
T7 construct: extracellular domain; also called hFcγR IIa H
T7 sequence (looked up): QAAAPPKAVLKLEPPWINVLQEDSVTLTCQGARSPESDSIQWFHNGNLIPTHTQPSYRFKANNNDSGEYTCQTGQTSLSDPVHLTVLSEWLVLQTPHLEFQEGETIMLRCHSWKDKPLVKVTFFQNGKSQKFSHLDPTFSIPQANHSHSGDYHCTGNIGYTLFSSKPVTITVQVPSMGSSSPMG
Method: as §1

[9] = target: T8, human C1q protein (Calbiochem) (human, UniProt P02745 23-245; P02746 28-253; P02747 29-245); test: ELISA: antibody coated on the plate at the varied concentration, hC1q 3 µg/mL added, detected with HRP-conjugated anti-hC1q antibody, O.D (450-690nm)
T8 construct: bought; also called hC1q
T8 sequence (P02745 23-245 limits assumed, chain 1 of 3): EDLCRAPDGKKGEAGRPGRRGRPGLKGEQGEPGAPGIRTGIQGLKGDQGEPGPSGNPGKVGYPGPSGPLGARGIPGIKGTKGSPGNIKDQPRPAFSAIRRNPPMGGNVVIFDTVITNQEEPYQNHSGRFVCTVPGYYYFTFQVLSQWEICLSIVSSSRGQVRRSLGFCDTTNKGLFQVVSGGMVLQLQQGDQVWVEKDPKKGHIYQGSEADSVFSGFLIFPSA
T8 sequence (P02746 28-253 limits assumed, chain 2 of 3): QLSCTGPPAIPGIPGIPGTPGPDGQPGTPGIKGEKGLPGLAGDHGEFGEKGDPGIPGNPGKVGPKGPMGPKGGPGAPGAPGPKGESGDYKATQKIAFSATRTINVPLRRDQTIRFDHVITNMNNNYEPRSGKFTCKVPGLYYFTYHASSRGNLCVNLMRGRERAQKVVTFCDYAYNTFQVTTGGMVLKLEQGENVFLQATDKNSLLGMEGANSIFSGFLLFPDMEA
T8 sequence (P02747 29-245 limits assumed, chain 3 of 3): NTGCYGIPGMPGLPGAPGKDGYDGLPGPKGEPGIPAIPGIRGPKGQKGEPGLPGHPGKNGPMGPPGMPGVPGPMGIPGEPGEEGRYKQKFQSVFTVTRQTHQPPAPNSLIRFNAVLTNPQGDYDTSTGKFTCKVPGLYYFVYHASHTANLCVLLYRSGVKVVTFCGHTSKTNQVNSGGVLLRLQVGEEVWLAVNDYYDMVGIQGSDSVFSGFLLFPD
Method: The antigen used was a human C1q protein (hC1q).
First, a 96-well maxisorp plate (Thermo fisher) was coated at 4° C. overnight with 50 μL of solutions containing each antibody prepared at 30, 10, 3, 1, 0.3, 0.1, and 0.03 μg/mL in PBS. Each well of the plate was washed with Wash buffer to remove the antibody not bound to the plate, and then the wells were blocked with 200 μL of Blocking/dilution Buffer at room temperature for 2 hours or longer. After the Blocking/dilution Buffer was removed from each well, hC1q (Calbiochem) prepared such that the final concentration was 3 μg/mL in Blocking/dilution Buffer was added at 50 μL per well. The plate was then allowed to stand at room temperature for 1 hour to allow hC1q to bind to the antibody within each well. After washing with Wash Buffer, 50 μL of an HRP-conjugated anti-hC1q antibody (AbDSerotec) diluted with Blocking/dilution Buffer was added to each well, and the plate was incubated while standing for 1 hour. After washing with Wash Buffer, TMB single solution (Invitrogen) was added. The color development reaction of the solution in each well was stopped by addition of Stop Buffer, and then the developed color was measured by absorbance at 450 nm and 690 nm.

[10] = target: T4, human FcγRIIIa V extracellular domain; test: SPR Biacore 8K+; KD for FcγRIIb divided by KD for this FcγR;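 further: antibodies captured on an anti-human Fab kappa SA chip with soluble human FcγR ectodomains flowed over, FcγRIIb KD from steady-state fit, other FcγR KD from Langmuir model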
Method: as §1

[11] = target: T5, human FcγRIIa R extracellular domain; test: as above
Method: as §1

[12] = target: T6, human FcγRIIIa F extracellular domain; test: as above
Method: as §1

[13] = target: T7, human FcγRIIa H extracellular domain; test: as above
Method: as §1

[14] = target: T1, human FcγRIIb extracellular domain; test: SPR Biacore 8K+; KD of G1d divided by KD of this antibody;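 further: antibodies captured on an anti-Fab-kappa streptavidin chip, soluble FcγR ectodomains flowed over, KD by steady-state fit for FcγRIIb and Langmuir kinetic model for the other receptors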
[15] = target: T3, human FcγRIa extracellular domain; test: as above
[16] = target: T4, human FcγRIIIa V extracellular domain; test: as above
[17] = target: T5, human FcγRIIa R extracellular domain; test: as above
[18] = target: T6, human FcγRIIIa F extracellular domain; test: as above
[19] = target: T7, human FcγRIIa H extracellular domain; test: as above
[20] = target: T9, human CTLA4 (human); test: SPR Biacore T200, 37C, antibody captured, ATP 100 uM; ATP 100 µM
T9 construct: also called hCTLA4; hCTLA4-His-BAP
T9 sequence (chain, as listed by the source limits assumed): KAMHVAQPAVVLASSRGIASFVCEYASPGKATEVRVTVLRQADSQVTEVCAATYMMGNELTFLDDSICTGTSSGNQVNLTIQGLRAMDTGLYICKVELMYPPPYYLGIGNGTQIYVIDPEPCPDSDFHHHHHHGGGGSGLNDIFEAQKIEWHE
Method: (§2) Biacore T200 was used to measure the binding of the generated antibodies to human CTLA4. 20 mM ACES (pH 7.4), 150 mM NaCl, 2 mM MgCl₂, 0.05% Tween 20 with ATP added to the desired concentration was used as the running buffer, and the assay was performed at 37° C. First, Protein G (CALBIOCHEM) was immobilized onto a Series S Sensor Chip CM3 (GE Healthcare), and the antibodies were captured by interacting an antibody solution prepared in an ATP-free running buffer with the chip. Next, by interacting with a human CTLA4 solution prepared in a running buffer containing ATP to the desired concentration, or a human CTLA4 solution prepared in a running buffer containing no ATP, the binding ability of the antibody to human CTLA4 in the presence or absence of ATP was evaluated. Chips were regenerated with 25 mM NaOH and 10 mM Glycine-HCl (pH 1.5), and assay was performed by repeatedly capturing antibodies. The dissociation constant of each antibody for CTLA4 was calculated using Biacore T200 Evaluation Software 2.0. Specifically, the binding rate constant ka (L/mol/s) and the dissociation rate constant kd (1/s) were calculated by global fitting of the sensorgrams obtained by the measurement, using a 1:1 Langmuir binding model. The dissociation constant KD (mol/L) was calculated from those values. Alternatively, the dissociation constant KD (mol/L) was calculated by the steady state model. In addition, the binding amount of CTLA4 per unit amount of antibody was calculated by correcting the amount of CTLA4 bound as calculated from the sensorgram obtained by the assay with the amount of antibody captured onto the chip surface.

[21] = target: T9, human CTLA4; test: SPR Biacore T200, 37C, antibody captured, ATP 10 uM; ATP 10 µM; binding amount
Method: (§3) Next, by interacting with a human CTLA4 solution prepared in a running buffer containing ATP to the desired concentration, or a human CTLA4 solution prepared in a running buffer containing no ATP, the binding ability of the antibody to human CTLA4 in the presence or absence of ATP was evaluated. Chips were regenerated with 25 mM NaOH and 10 mM Glycine-HCl (pH 1.5), and assay was performed by repeatedly capturing antibodies. The dissociation constant of each antibody for CTLA4 was calculated using Biacore T200 Evaluation Software 2.0. Specifically, the binding rate constant ka (L/mol/s) and the dissociation rate constant kd (1/s) were calculated by global fitting of the sensorgrams obtained by the measurement, using a 1:1 Langmuir binding model. The dissociation constant KD (mol/L) was calculated from those values. Alternatively, the dissociation constant KD (mol/L) was calculated by the steady state model. In addition, the binding amount of CTLA4 per unit amount of antibody was calculated by correcting the amount of CTLA4 bound as calculated from the sensorgram obtained by the assay with the amount of antibody captured onto the chip surface.
(§4) First, Sure Protein A (GE Healthcare) was immobilized onto a Series S Sensor Chip CM3 (GE Healthcare), and the antibodies were captured onto the chip by interacting an antibody solution prepared in the running buffer.

[22] = target: T9, human CTLA4; test: SPR Biacore T200, 37C, antibody captured, no ATP; no ATP; binding amount
Method: as §3, §4

[23] = target: T9, human CTLA4; test: SPR Biacore T200, 37C, antibody captured, ATP 1 uM; ATP 1 µM; binding amount
Method: as §3, §4

[24] = target: T9, human CTLA4; test: SPR Biacore T200, 37C, antibody captured, ATP 100 uM; ATP 100 µM; binding amount
Method: as §3, §4

[25] = target: T9, human CTLA4; test: SPR Biacore T200, 37C, antibody captured, ATP 10 uM; ATP 10 µM
Method: as §2

B1: H240-GASDALIE/L73-k0 (antibody, human IgG1, kappa)
heavy: QDQLVQSGAEVKKPGASVKVSCKASGFNIKDTYIQWVRQAPGQGLEWMGRIDPLRKQTKYREKFEGRVTITADTSTNTAYMELSSLRSEDTAVYYCVRSGREFDYWGQGTLVTVSSASTKGPSVFPLAPSSKSTSGGTAALGCLVKDYFPEPVTVSWNSGALTSGVHTFPAVLQSSGLYSLSSVVTVPSSSLGTQTYICNVNHKPSNTKVDKKVEPKSCDKTHTCPPCPAPELLAGPDVFLFPPKPKDTLMISRTPEVTCVVVDVSHEDPEVKFNWYVDGVEVHNAKTKPREEQYNSTYRVVSVLTVLHQDWLNGKEYKCKVSNKALPLPEEKTISKAKGQPREPQVYTLPPSRDELTKNQVSLTCLVKGFYPSDIAVEWESNGQPENNYKTTPPVLDSDGSFFLYSKLTVDKSRWQQGNVFSCSVMHEALHNHYTQKSLSLSP
light: DIQMTQSPSSLSASVGDRVTITCRASQDIHKYIAWYQQKPGQAPRLLIQYTSTLQPGVPSRFSGSGSGTDYTFTISSLQPEDIATYYCLQYEQLRTFGGGTKVEIKRTVAAPSVFIFPPSDEQLKSGTASVVCLLNNFYPREAKVQWKVDNALQSGNSQESVTEQDSKDSTYSLSSTLTLSKADYEKHKVYACEVTHQGLSSPVTKSFNRGEC
- Kd [1]: 2670 nM
- EC50 value (hFcγRIIaH ADCP Reporter Bioassay, Hepa1-6/hEREG target cells) [2]: 0.0324 µg/mL
- EC50 value (hFcγRIIIaV ADCC Reporter Bioassay, Hepa1-6/hEREG target cells) [3]: 2.08 ng/mL
- Kd [4]: 4.23 pM
- Kd [5]: 15.2 nM
- Kd [6]: 161 nM
- Kd [7]: 29.8 nM
- Kd [8]: 162 nM
- binding result [9]: no binding (tested: 30 µg/mL)
- A/I ratio (KD for FcγRIIb divided by KD for each FcγR) [10]: 176
- A/I ratio (KD for FcγRIIb divided by KD for each FcγR) [11]: 16.5
- A/I ratio (KD for FcγRIIb divided by KD for each FcγR) [12]: 89.3
- A/I ratio (KD for FcγRIIb divided by KD for each FcγR) [13]: 16.5
- Relative value to KD between G1d and hFcgRs [14]: 3.8
- Relative value to KD between G1d and hFcgRs [15]: 21.3
- Relative value to KD between G1d and hFcgRs [16]: 23.6
- Relative value to KD between G1d and hFcgRs [17]: 10.3
- Relative value to KD between G1d and hFcgRs [18]: 99.1
- Relative value to KD between G1d and hFcgRs [19]: 6.9

B2: 04H1207-G1m/04L1086-lam1 (antibody, human IgG1, lambda, V domains shown)
VH: EVQLVESGGGLVKPGGSLRLSCAASGFTFSSKTMNWVRQAPGKGLEWVSSISTRSGYIYYAESVKGRFTISRDNAKNSLYLQMNSLRAEDTAVYYCARYGKREDMLWVFDYWGQGTLVTVSS
VL: QSALTQPPSASGSPGQTVTISCDGPSTGVGDYNYVHWYQQHPGKAPKLMIYFTSKKPSGVPDRFSGSKSGNTASLTVSGLQAEDEADYFCQTYAAPLGPMFGGGTKLTVLG
notes: Human IgG1 constant region G1m (C-terminal Gly and Lys removed), human lambda chain lam1
- Kd [20]: 76 nM
- Binding to Human CTLA4 (binding amount per unit amount of antibody) [21]: 0.111
- Binding to Human CTLA4 (binding amount per unit amount of antibody) [22]: 0.01
- Binding to Human CTLA4 (binding amount per unit amount of antibody) [23]: 0.037
- Binding to Human CTLA4 (binding amount per unit amount of antibody) [24]: 0.166
- Kd [25]: 400 nM

B3: 04H1382-G1m/04L1086-lam1 (antibody, human IgG1, lambda, V domains shown)
VH: EVQLVESGGGLVKPGGSLRLSCAASGFTFSSKTMNWVRQAPGKGLEWVSSISTQSHYIYYARSVKGRFTISRDNAKNSLYLQMNSLRAEDTAVYYCARYGKREDMLWVFDYWGQGTLVTVSS
VL: QSALTQPPSASGSPGQTVTISCDGPSTGVGDYNYVHWYQQHPGKAPKLMIYFTSKKPSGVPDRFSGSKSGNTASLTVSGLQAEDEADYFCQTYAAPLGPMFGGGTKLTVLG
- Kd [20]: 14 nM
- Binding to Human CTLA4 (binding amount per unit amount of antibody) [21]: 0.152
- Binding to Human CTLA4 (binding amount per unit amount of antibody) [22]: 0.008
- Binding to Human CTLA4 (binding amount per unit amount of antibody) [23]: 0.09
- Binding to Human CTLA4 (binding amount per unit amount of antibody) [24]: 0.159
- Kd [25]: 46 nM

B4: 04H1208-G1m/04L1086-lam1 (antibody, human IgG1, lambda, V domains shown)
VH: EVQLVESGGGLVKPGGSLRLSCAASGFTFSSKTMNWVRQAPGKGLEWVSSISTRSGYIYYARSVKGRFTISRDNAKNSLYLQMNSLRAEDTAVYYCARYGKREDMLWVFDYWGQGTLVTVSS
VL: QSALTQPPSASGSPGQTVTISCDGPSTGVGDYNYVHWYQQHPGKAPKLMIYFTSKKPSGVPDRFSGSKSGNTASLTVSGLQAEDEADYFCQTYAAPLGPMFGGGTKLTVLG
- Kd [20]: 91 nM
- Binding to Human CTLA4 (binding amount per unit amount of antibody) [21]: 0.084
- Binding to Human CTLA4 (binding amount per unit amount of antibody) [22]: 0.003
- Binding to Human CTLA4 (binding amount per unit amount of antibody) [23]: 0.022
- Binding to Human CTLA4 (binding amount per unit amount of antibody) [24]: 0.139
- Kd [25]: 510 nM
